T1: Human Scribble (SCRIB) PDZ3 domain (1002-1094) (human, UniProt Q14160 1002-1094)
T1 sequence (looked up): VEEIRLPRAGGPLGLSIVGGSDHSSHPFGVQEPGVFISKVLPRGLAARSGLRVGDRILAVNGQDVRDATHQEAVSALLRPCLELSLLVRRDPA


Experiments:
[1] = test system: a wide range of different PDZ domains; conditions: cited from earlier work
[2] = target: T1, Human Scribble (SCRIB) PDZ3 domain …; test: ITC; conditions: both partners purified

Row | Molecule | affinity towards PDZ domains, in words [1] | Kd [2] [µM] | dH [2] [kJ/mol] | stoichiometry N [2]
1 | RSWFETWV [Superpeptide, used as a positive control] | affinity towards a wide range of different PDZ domains |  |  | 
2 | LRLESSII [TBEV NS5_CTN peptide (C-terminal PBM of NS5)] |  | 18.4 | -4.6 | 1

— publication PMC9317960 (Biochemical Journal, 2022)
